Laboratory results as given in US20170260508A1.

Target: chimeric LILRB2-PILRβ receptor (aa 24-458 of hLILRB2) on mouse T cell hybridoma NFAT-GFP reporter cells (human), Q8N423
Assay: cell-based or functional assay

Sequence of chimeric LILRB2-PILRβ receptor (aa 24-458 of hLILRB2) on mouse T cell hybridoma NFAT-GFP reporter cells (human), Q8N423 (Q8N423 other isoform, or with tags, fused parts or gaps mutant limits assumed, form in doubt): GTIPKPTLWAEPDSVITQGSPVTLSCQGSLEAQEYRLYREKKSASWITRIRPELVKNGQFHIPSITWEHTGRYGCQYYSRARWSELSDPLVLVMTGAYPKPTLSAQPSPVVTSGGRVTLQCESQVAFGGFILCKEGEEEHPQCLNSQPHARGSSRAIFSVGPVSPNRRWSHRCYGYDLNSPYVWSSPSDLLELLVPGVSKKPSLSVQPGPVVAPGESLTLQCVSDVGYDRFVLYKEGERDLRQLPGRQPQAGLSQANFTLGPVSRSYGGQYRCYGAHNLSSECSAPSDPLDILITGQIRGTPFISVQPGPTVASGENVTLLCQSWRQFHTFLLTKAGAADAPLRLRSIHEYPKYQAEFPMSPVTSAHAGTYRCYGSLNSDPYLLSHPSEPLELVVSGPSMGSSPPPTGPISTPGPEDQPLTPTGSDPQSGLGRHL

B1: Angptl2-FLAG, full-length human Angptl2 secreted from transfected 293T cells, Q9UKU9 23-493 (ligand, not shown: small tags and cut ends)
chain: QEDGFEGTEEGSPREFIYLNRYKRAGESQDKCTYTFIVPQQRVTGAICVNSKEPEVLLENRVHKQELELLNNELLKQKRQIETLQQLVEVDGGIVSEVKLLRKESRNMNSRVTQLYMQLLHEIIRKRDNALELSQLENRILNQTADMLQLASKYKDLEHKYQHLATLAHNQSEIIAQLEEHCQRVPSARPVPQPPPAAPPRVYQPPTYNRIINQISTNEIQSDQNLKVLPPPLPTMPTLTSLPSSTDKPSGPWRDCLQALEDGHDTSSIYLVKPENTNRLMQVWCDQRHDPGGWTVIQRRLDGSVNFFRNWETYKQGFGNIDGEYWLGLENIYWLTNQGNYKLLVTMEDWSGRKVFAEYASFRLEPESEYYKLRLGRYHGNAGDSFTWHNGKQFTTLDRDHDVYTGNCAHYQKGGWWYNACAHSNLNGVWYRGGHYRSRYQDGVYWAEFRGGSYSLKKVVMMIRPNPNTFH
Question: Which GFP expression of LILRB2 reporter cells after 24 h with Angptl2 conditioned medium (2 µg/ml); control: mock medium does the source give for B1 here?
Answer: Its GFP expression of LILRB2 reporter cells after 24 h with Angptl2 conditioned medium (2 µg/ml); control: mock medium is 18.9%.
